Biological target: T1, human LAG-3 (Lymphocyte-Activation Gene 3) protein (human, UniProt P18627 23-525)
T1 construct: whole, on cells; Endogenous LAG-3 in normal and tumour tissue sections (IHC), not a recombinant protein; also called CD223
T1 sequence (looked up): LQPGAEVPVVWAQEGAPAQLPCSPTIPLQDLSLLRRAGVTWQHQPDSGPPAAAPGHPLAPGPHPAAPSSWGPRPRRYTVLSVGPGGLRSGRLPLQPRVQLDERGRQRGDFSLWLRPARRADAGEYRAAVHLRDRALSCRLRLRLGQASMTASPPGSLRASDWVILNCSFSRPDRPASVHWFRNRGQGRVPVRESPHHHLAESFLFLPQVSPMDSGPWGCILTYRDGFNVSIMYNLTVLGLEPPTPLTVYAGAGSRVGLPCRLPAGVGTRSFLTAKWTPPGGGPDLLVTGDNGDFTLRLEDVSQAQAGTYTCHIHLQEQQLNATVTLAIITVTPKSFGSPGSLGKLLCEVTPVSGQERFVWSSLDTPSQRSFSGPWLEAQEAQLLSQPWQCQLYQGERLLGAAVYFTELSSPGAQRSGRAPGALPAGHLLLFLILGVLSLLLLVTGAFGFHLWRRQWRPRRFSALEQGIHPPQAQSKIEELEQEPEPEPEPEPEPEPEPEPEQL
Assay: double IHC staining on normal tonsil
Text: FIG. 9 illustrates tumor tissue samples of Lung Squamous cell Carcinoma (SQC) (FIG. 10) and kidney renal cell carcinoma (RCC) (FIG. 11); the double IHC staining method follows the protocol of Petersen, et al. 2018 [18] using the EnVision FLEX+™ system in a sequential manner, where the exemplary LAG-3 antibody, clone 12H8 (HRP DAB chromagen) constitutes the first layer followed by a sulfuric acid block step and adding an extra EnVision FLEX+™ staining layer on top with PD1 antibody, clone NAT105 (magenta chromogen)); and FIG. 9 illustrates that LAG-3 is co-localized with the PD1 T cell marker in a subpopulation of activated T cells in the germinal center of the tonsil. Other cells belonging to the activated T cell population is only stained by PD1. The B lymphocytes in the germinal center are negative for both the LAG-3 and the PD1 antibody, illustrating the specificity of both these antibodies: (Red arrow: strongly LAG-3 positive, DAB overshadows magenta PD1. Green arrow: weakly pos LAG-3 with both DAB membrane and DAB golgi and PD1 magenta stain visible). PD1 positive, LAG-3 negative T cells: (orange arrow).

binding result: binds
B1: rabbit anti-human LAG-3 antibody, clone 12H8 (antibody, V domains shown)
VH: QSVKESEGGLFKPTDTLTLTCTVSGIDLSSGILVWVRQAPGSGLEWIGGIDANGRAYYASWAKSRSTITRNTNENTVTLKMTSLTAADTATYFCAGGAWNIWGPGTLVTVSS
VL: AQVLTQTPSPVSAAVGGTVTIKCQSSQSVYDSNTLAWFQQKPGQPPKLLMYSASTLAFGVPSRFSGSGSGTQFTLTISDLECADAATYYCLGSYDCSSVDCTAFGGGTEVVVK
notes: also called LAG-3 clone 12H8; exemplary LAG-3 antibody

— patent US20210371520A1 (AGILENT TECHNOLOGIES, published 2021)
